Earlier results in paper PMC10474648, “Design of chimeric GLP-1A using oligomeric bile acids to utilize transporter-mediated endocytosis for oral delivery” (Biomaterials Research, 2023).

Key:
GLP-1R = settings: read-out: Kd, GLP-1R binding; cited from earlier work
From the text: Cellular penetration may occur by two pathways: the paracellular and transcellular pathways. […] Additionally, ...

[1] = cited from earlier work
From the text: Diabetes is a representative chronic disease that requires lifetime management. Because of the need for frequent and combination dosing, most hypoglycemic therapeutics are small molecule-based oral drugs.

**Q.** For semaglutide, which Kd (GLP-1R) is on record?
**A.** 0.38 nM

**Q.** And the Half-life [1]?
**A.** 170 h

**Q.** With dulaglutide as the substance, how does the Half-life [1] read?
**A.** 120 h
